Measured values taken from patent US7195897B2, “Feedback-resistant homoserine transsuccinylases having a modified c-terminus” (priority 2002, dated 2007).
Like-named read-outs stand apart in the source and are kept apart here.

Columns and labels:
[1] = biological target: T1, E. coli homoserine transsuccinylase (MetA), wild type, SEQ ID NO: 2 (plasmid pKP413GAP) (Escherichia coli, UniProt P07623); assay: biochemical; conditions: pH 7.6, read-out: Activity (%) in the presence of 1 mM L-methionine
[2] = biological target: T1, E. coli homoserine transsuccinylase (MetA), wild type, SEQ ID NO: 2 (plasmid pKP413GAP); conditions: pH 7.5, read-out: Activity (%) in the presence of 1 mM SAM
[3] = test system: homoserine transsuccinylase; assay: Homoserine transsuccinylase activity test (Lee et al., 5,5'-dithiobis(2-nitrobenzoic acid), 412 nm), activity and inhibition by SAM; format: biochemical, E. coli; conditions: cell extract; 3 mM homoserine, 0.3 mM succinyl-CoA, 50 mM potassium phosphate buffer pH 7.5
[4] = test system: homoserine transsuccinylase; conditions: cell extract of E. coli W3110 transformant; 1 mM homoserine, 0.1 mM succinyl-CoA, 50 mM Tris/Cl pH 7.6

Molecule	activity at 1000 µM [1]	activity at 1000 µM [2]	Activity (U/mg) [3]	Activity (U/mg) [4]
CSCC[C@H](N)C(=O)O [L-methionine]	2%			
C[S+](CC[C@H](N)C(=O)[O-])C[C@H]1O[C@@H](n2cnc3c(N)ncnc32)[C@H](O)[C@@H]1O (some centres unmarked) [SAM, S-Adenosylmethionine]		0.5%		
pBaBmetAext2: MetA variant with altered, extended carboxy-terminus from amino acid 297 onwards (SEQ ID No. 12) (SYIHQYLLVNNSTELWMHTRLIKRPHCDEWQGGA)			0.173 U/mg	0.045 U/mg
pBaBmetAext: MetA variant with altered, extended carboxy-terminus from amino acid 297 onwards (SEQ ID No. 10) (SYIHHYLLVNNSTELWMHTRLIKRPHCDEWQGGA)			0.082 U/mg	0.011 U/mg
pKP413GAP: E. coli wild-type homoserine transsuccinylase (MetA, SEQ ID No. 2) expressed from starting plasmid pKP413GAP under the GAPDH promoter (protein, listed as Escherichia coli) MPIRVPDELPAVNFLREENVFVMTTSRASGQEIRPLKVLILNLMPKKIETENQFLRLLSNSPLQVDIQLLRIDSRESRNTPAEHLNNFYCNFEDIQDQNFDGLIVTGAPLGLVEFNDVAYWPQIKQVLEWSKDHVTSTLFVCWAVQAALNILYGIPKQTRTEKLSGVYEHHILHPHALLTRGFDDSFLAPHSRYADFPAALIRDYTDLEILAETEEGDAYLFASKDKRIAFVTGHPEYDAQTLAQEFFRDVEAGLDPDVPYNYFPHNDPQNTPRASWRSHGNLLFTNWLNYYVYQITPYDLRHMNPTLD			0.62 U/mg	0.155 U/mg
